The target in this data set is H-NS (Salmonella enterica serovar Typhimurium …, UniProt A0A0F6B244 1-137). The data set is described as follows: fluorescence anisotropy. (In general: Polarisation of emitted light reports the rotation of a fluorescent probe.)
Chain of H-NS (A0A0F6B244 whole entry): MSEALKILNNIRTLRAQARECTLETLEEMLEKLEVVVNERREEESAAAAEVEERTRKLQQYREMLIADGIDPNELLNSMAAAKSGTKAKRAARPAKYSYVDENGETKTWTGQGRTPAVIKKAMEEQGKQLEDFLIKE

B1: 36 bp pagC high-affinity H-NS site (HAhnsBS) (dsDNA)
DNA 1: ATGGGTTTTATAGCGAAATAGACTTTTTTATCGCGT
DNA 2: ACGCGATAAAAAAGTCTATTTCGCTATAAAACCCAT
B1: the binding result is reported as “binds”.

The values above are taken from PMC6009595.
